The source of these data is the Immune Epitope Database (IEDB).

pKd: −log10 of the molar value.

The target of one assay is HLA-A*23:01. Nature of the assay: IEDB peptide-MHC binding, purified MHC/competitive/fluorescence; filed as Kd, often an IC50 or EC50 that approximates it; ≥ and ≤ were set here for values at or beyond the usual limits of such assays. Conditions: source organism: Cryptosporidium parvum Iowa II.
The target in a further assay is HLA-B*15:01. The assay is described as above.
The target in a further assay is HLA-B*39:01. The description is as above. Conditions: source organism: Cryptosporidium parvum Iowa II.
For assay [1], the target named is HLA-B*51:01. The assay is described as above. Conditions: source organism: Cryptosporidium parvum Iowa II.
Assay [2] addresses HLA-A*03:01. The assay is described as above. Conditions: source organism: Cryptosporidium parvum Iowa II.
For another assay, the target named is HLA-B*53:01. Described as above. To be noted: source organism: Cryptosporidium parvum Iowa II.
The target in another assay is HLA-B*08:01. The description is as above. Conditions: source organism: Cryptosporidium parvum Iowa II.
A further assay has as its target HLA-A*30:02. The assay is described as above. To be noted: source organism: Cryptosporidium parvum Iowa II.
The target in the next assay is HLA-B*14:02. Described as above. Conditions: source organism: Cryptosporidium parvum Iowa II.
A further assay deals with HLA-A*26:01. Described as above. To be noted: source organism: Cryptosporidium parvum Iowa II.
The target in the next assay is HLA-A*66:01. The description is as above. To be noted: source organism: Cryptosporidium parvum Iowa II.
Assay [3] deals with HLA-A*11:01. Described as above. Conditions: source organism: Cryptosporidium parvum Iowa II.
Another assay addresses HLA-B*07:02. Described as above. To be noted: source organism: Cryptosporidium parvum Iowa II.
The target of assay [4] is HLA-A*01:01. The assay is described as above. To be noted: source organism: Cryptosporidium parvum Iowa II.
The target in the next assay is HLA-A*29:02. Described as above. To be noted: source organism: Cryptosporidium parvum Iowa II.
The target of assay [5] is HLA-B*46:01. The description is as above. Conditions: source organism: Cryptosporidium parvum Iowa II.
In the next assay the target is HLA-A*30:01. The description is as above. To be noted: source organism: Cryptosporidium parvum Iowa II.
For the next assay, the target named is HLA-B*27:03. Described as above. To be noted: source organism: Cryptosporidium parvum Iowa II.
In a further assay the target is HLA-A*24:03. The assay is described as above. To be noted: source organism: Cryptosporidium parvum Iowa II.
For the next assay, the target named is HLA-B*44:02. The description is as above. Conditions: source organism: Cryptosporidium parvum Iowa II.
In another assay the target is HLA-A*68:02. The description is as above. Conditions: source organism: Cryptosporidium parvum Iowa II.
Assay [6] has as its target HLA-B*18:01. Described as above. To be noted: source organism: Cryptosporidium parvum Iowa II.
Assay [7] addresses HLA-B*40:01. Described as above. To be noted: source organism: Cryptosporidium parvum Iowa II.
Assay [8] has as its target HLA-B*27:05. The description is as above. To be noted: source organism: Cryptosporidium parvum Iowa II.
The target in another assay is HLA-C*12:03. Nature of the assay: IEDB peptide-MHC binding, purified MHC/direct/fluorescence; filed as Kd, often an IC50 or EC50 that approximates it; ≥ and ≤ were set here for values at or beyond the usual limits of such assays. Conditions: source organism: Cryptosporidium parvum Iowa II.
The target in the next assay is HLA-A*31:01. Described as above. Conditions: source organism: Mycobacterium tuberculosis.
The target of assay [9] is HLA-B*51:01. Described as above. Conditions: source organism: Mycobacterium tuberculosis.
In assay [10] the target is HLA-A*03:01. The description is as above. To be noted: source organism: Mycobacterium tuberculosis.
Another assay addresses HLA-B*38:01. Described as above. Conditions: source organism: Mycobacterium tuberculosis str. Haarlem.
The next assay concerns the target HLA-A*69:01. The assay is described as above. To be noted: source organism: Mycobacterium tuberculosis.
The target of the next assay is HLA-B*15:17. Described as above. To be noted: source organism: Mycobacterium tuberculosis.
The next assay has as its target HLA-B*57:01. The description is as above. Conditions: source organism: Mycobacterium tuberculosis.
The next assay concerns the target HLA-B*48:01. Described as above. Conditions: source organism: Mycobacterium tuberculosis.
Assay [11] deals with HLA-A*11:01. Described as above. To be noted: source organism: Mycobacterium tuberculosis.
The target of assay [12] is HLA-A*01:01. Described as above. Conditions: source organism: Mycobacterium tuberculosis.
Assay [13] concerns the target HLA-B*46:01. The assay is described as above. Conditions: source organism: Mycobacterium tuberculosis.
For another assay, the target named is HLA-A*02:01. Described as above. Conditions: source organism: Mycobacterium tuberculosis.
Assay [14] addresses HLA-B*18:01. The description is as above. To be noted: source organism: Mycobacterium tuberculosis.
Assay [15] deals with HLA-B*40:01. The description is as above. Conditions: source organism: Mycobacterium tuberculosis.
Assay [16] addresses HLA-B*27:05. Described as above. Conditions: source organism: Mycobacterium tuberculosis.
For a further assay, the target named is HLA-B*58:01. The assay is described as above. Conditions: source organism: Mycobacterium tuberculosis.

Usually pKd stands for the negative decadic logarithm of the Kd, by convention in mol/L. Read a low pKd as a large Kd. Turning to FTWQHNYYL, the pKd in the assay with HLA-A*23:01 is 6.83; in the assay with HLA-B*15:01 (source organism: Cryptosporidium parvum Iowa II), at most 4.70; with HLA-B*39:01, at most 4.70; with HLA-B*51:01 [1] it was at most 4.70; in the assay with HLA-A*03:01 [2], at most 4.70; with HLA-B*53:01, at most 5.30. Besides, the pKd is at most 5.30 in the assay with HLA-B*08:01; at most 5.30 with HLA-A*30:02; at most 4.70 in the assay with HLA-B*14:02; at most 4.70 in the assay with HLA-A*26:01; at most 5.30 with HLA-A*66:01; at most 5.30 with HLA-A*11:01 [3]. The pKd is at most 5.30 with HLA-B*07:02; 6.33 with HLA-A*01:01 [4]; 7.29 with HLA-A*29:02; at most 4.70 with HLA-B*46:01 [5]; at most 5.30 in the assay with HLA-A*30:01; at most 4.70 in the assay with HLA-B*27:03. The pKd was 7.39 in the assay with HLA-A*24:03; at most 5.30 in the assay with HLA-B*44:02; at least 9.00 in the assay with HLA-A*68:02; at most 4.70 in the assay with HLA-B*18:01 [6]; at most 5.30 with HLA-B*40:01 [7]; at most 5.30 in the assay with HLA-B*27:05 [8]. In addition, the pKd in the assay with HLA-C*12:03 is 6.47.
Regarding VPRENATAF, the pKd with HLA-B*15:01 (source organism: Mycobacterium tuberculosis variant bovis BCG str. Pasteur 1173P2), in the assay with HLA-A*31:01, in the assay with HLA-B*51:01 [9], in the assay with HLA-A*03:01 [10], in the assay with HLA-B*38:01 and with HLA-A*69:01 was at most 4.70 each time. The pKd with HLA-B*15:17 is at most 4.70; in the assay with HLA-B*57:01, at most 4.70; with HLA-B*48:01, at most 4.70; with HLA-A*11:01 [11], at most 4.70; in the assay with HLA-A*01:01 [12], at most 4.70; in the assay with HLA-B*46:01 [13] it was 4.80. For the same sequence, the pKd was at most 4.70 with HLA-A*02:01; 6.22 in the assay with HLA-B*18:01 [14]; at most 4.70 with HLA-B*40:01 [15]; at most 4.70 in the assay with HLA-B*27:05 [16]; at most 4.70 with HLA-B*58:01.
